What was measured:
crystal structure = target: the molecule itself; assay: crystal structure
SAXS = target: the molecule itself; assay: SAXS

B1: SFPQ-276–535 (domain or fragment)
chain: EGFKANLSLLRRPGEKTYTQRCRLFVGNLPADITEDEFKRLFAKYGEPGEVFINKGKGFGFIKLESRALAEIAKAELDDTPMRGRQLRVRFATHAAALSVRNLSPYVSNELLEEAFSQFGPIERAVVIVDDRGRSTGKGIVEFASKPAARKAFERCSEGVFLLTTTPRPVIVEPLEQLDDEDGLPEKLAQKNPMYQKERETPPRFAQHGTFEYEYSQRWKSLDEMEKQQREQVEKNMKDAKDKLESEMEDAYHEHQANLL
stoichiometry N (crystal structure): 2

B2: SFPQ-276–598 (domain or fragment)
chain: EGFKANLSLLRRPGEKTYTQRCRLFVGNLPADITEDEFKRLFAKYGEPGEVFINKGKGFGFIKLESRALAEIAKAELDDTPMRGRQLRVRFATHAAALSVRNLSPYVSNELLEEAFSQFGPIERAVVIVDDRGRSTGKGIVEFASKPAARKAFERCSEGVFLLTTTPRPVIVEPLEQLDDEDGLPEKLAQKNPMYQKERETPPRFAQHGTFEYEYSQRWKSLDEMEKQQREQVEKNMKDAKDKLESEMEDAYHEHQANLLRQDLMRRQEELRRMEELHNQEMQKRKEMQLRQEEERRRREEEMMIRQREMEEQMRRQREESYS
stoichiometry N (crystal structure): 2

B3: SFPQ-276–598/NONO-53–312 heterodimer (complex)
chain 1: EGFKANLSLLRRPGEKTYTQRCRLFVGNLPADITEDEFKRLFAKYGEPGEVFINKGKGFGFIKLESRALAEIAKAELDDTPMRGRQLRVRFATHAAALSVRNLSPYVSNELLEEAFSQFGPIERAVVIVDDRGRSTGKGIVEFASKPAARKAFERCSEGVFLLTTTPRPVIVEPLEQLDDEDGLPEKLAQKNPMYQKERETPPRFAQHGTFEYEYSQRWKSLDEMEKQQREQVEKNMKDAKDKLESEMEDAYHEHQANLLRQDLMRRQEELRRMEELHNQEMQKRKEMQLRQEEERRRREEEMMIRQREMEEQMRRQREESYS
chain 2: EGLTIDLKNFRKPGEKTFTQRSRLFVGNLPPDITEEEMRKLFEKYGKAGEVFIHKDKGFGFIRLETRTLAEIAKVELDNMPLRGKQLRVRFACHSASLTVRNLPQYVSNELLEEAFSVFGQVERAVVIVDDRGRPSGKGIVEFSGKPAARKALDRCSEGSFLLTTFPRPVTVEPMDQLDDEEGLPEKLVIKNQQFHKEREQPPRFAQPGSFEYEYAMRWKALIEMEKQQQDQVDRNIKEAREKLEMEMEAARHEHQVMLM
binding result (SAXS): binds

B4: SFPQ-369–598 (domain or fragment)
chain: HAAALSVRNLSPYVSNELLEEAFSQFGPIERAVVIVDDRGRSTGKGIVEFASKPAARKAFERCSEGVFLLTTTPRPVIVEPLEQLDDEDGLPEKLAQKNPMYQKERETPPRFAQHGTFEYEYSQRWKSLDEMEKQQREQVEKNMKDAKDKLESEMEDAYHEHQANLLRQDLMRRQEELRRMEELHNQEMQKRKEMQLRQEEERRRREEEMMIRQREMEEQMRRQREESYS
stoichiometry N (crystal structure): 2
